Legend:
[1] = target: Milano Short Tail Fiber (STF), gp31 (Agrobacterium tumefaciens bacteriophage Milano); assay: cryo-EM structure; baseplate junction of purified native Milano virions in the extended state, single particle analysis with C3 symmetry, ~3.2 Å; distal parts of the receptor-binding proteins and the garland only rigid-body fitted with AlphaFold models
[2] = target: Milano Tail Spike Protein (TSP), gp124 (Agrobacterium tumefaciens bacteriophage Milano); assay: as above
[3] = target: Milano tail tube protein, gp21 (Agrobacterium tumefaciens bacteriophage Milano); assay: cryo-EM structure; extended (pre-attachment) tail of purified native Milano virions; curved tail segments reconstructed with no imposed symmetry; the straight baseplate-proximal segment was extracted from the baseplate junction structure

Question: “Milano Short Tail Fiber (STF), gp31 (natural protein)” was tested. Which stoichiometry N [1] did it give?
Answer: 3

Question: With “Milano Tail Spike Protein (TSP), gp124 (natural protein)” as the substance, how does the stoichiometry N [2] read?
Answer: 3

Question: For “Milano tail tube protein, gp21 (natural protein)”, which stoichiometry N [3] is on record?
Answer: 6
